The supplement of paper PMC9732359
± gives the uncertainty stated by the source.

Experiment: protein stability index of a GFP-peptide fusion (yeast GPS) (PSI 1-4); higher = more stable; sorted into four equal gates, so the index is relative within each strain
How it was run: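 Yeast carrying a pooled library were grown to mid-log phase in leucine-free medium. Each library plasmid expresses Cherry and has a tiled 17-residue yeast protein peptide fused downstream of GFP. Cells were sorted into four equal gates by GFP/Cherry ratio, and plasmids from each gate were PCR-amplified, Illumina-sequenced and assigned to strains by barcode. Summing, across gates, the read frequency times the gate number gave each peptide's protein stability index.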

Row | Sequence | protein stability index (doa10∆) | protein stability index (pdr5∆) | protein stability index (san1∆) | protein stability index (ubr1∆)
1 | TDLHLPKKEYDDDAVRR [NSL1] | 1.99 ± 0.13 | 2.25 ± 0.12 | 1.42 ± 0.24 | 3.13 ± 0.11
2 | ENDEEFYKNKYSSKPYK [RPN2] | 2.4 ± 0.062 | 2.61 ± 0.097 | 2.36 ± 0.12 | 2.19 ± 0.17
3 | DSSVEDSTDNENSGKEM [LIN1] | 3.04 ± 0.041 | 3.24 ± 0.069 | 3.41 ± 0.081 | 2.99 ± 0.031
4 | GYDDFQEEGSFEFGNMK [FAS2] | 3.48 ± 0.14 | 3.26 ± 0.18 | 2.6 ± 0.28 | 3.33 ± 0.08
5 | LDVSSDRRKARKAYFTA [RPL26A] | 1.79 ± 0.081 | 1.26 ± 0.082 | 2.42 ± 0.1 | 2.12 ± 0.07
6 | QQQQQQQQQQQQQQQQH [GAL11] | 2.68 ± 0.033 | 2.8 ± 0.029 | 2.698 ± 0.025 | 2.878 ± 0.024
7 | DRETALDFIGRRGTALG [RPB2] | 2.23 ± 0.072 | 2.07 ± 0.065 | 2.22 ± 0.059 | 2.14 ± 0.066
8 | QFGNACISLSGVPNYLV [SSN2] | 1.59 ± 0.077 | 2.05 ± 0.093 | 2.37 ± 0.21 | 2.21 ± 0.069
9 | TTRVGGGGAARRQAVDV [RPS5] | 1.61 ± 0.26 | 1.63 ± 0.12 | 1.73 ± 0.28 | 1.82 ± 0.17
10 | SYINVTFRAVVFKPFLG [RPC25] | 1.52 ± 0.084 | 1.95 ± 0.061 | 2.26 ± 0.079 | 1.94 ± 0.056
11 | PFTNEAHMWPRVHDQPL [POP3] | – | 1.36 ± 0.24 | – | –
12 | LKTVLHNGRDKIQFHIH [RGR1] | 1.49 ± 0.047 | 1.49 ± 0.05 | 1.41 ± 0.074 | 1.39 ± 0.048
13 | PYQHPPNIFPNLTYYNE [ITC1] | 2.68 ± 0.058 | 2.83 ± 0.045 | 2.66 ± 0.045 | 2.76 ± 0.039
14 | LGPLSYQNMAFITAKDK [YJR042W/NUP85] | 2.43 ± 0.075 | 2.22 ± 0.088 | 2.26 ± 0.079 | 2.31 ± 0.058
15 | IERDSLVDDENEPSQSL [BRN1] | 3.27 ± 0.12 | 3.41 ± 0.12 | 3.18 ± 0.082 | 3.2 ± 0.077
16 | QLAQIRQFLKANKTNLI [YML103C/NUP188] | 2.65 ± 0.057 | 2.81 ± 0.068 | 2.86 ± 0.049 | 2.93 ± 0.04
17 | DHINGSGKRKPTKAAQR [GAL11] | 2.3 ± 0.14 | 2.81 ± 0.094 | 3.1 ± 0.16 | 3.17 ± 0.1
18 | KLYTKELSVTGSAINHH [YMR129W/POM152] | 1.22 ± 0.12 | 1.35 ± 0.077 | 1.46 ± 0.23 | 1.49 ± 0.06
19 | QREEAKKVVKKAFEERH [RPL27A] | – | 3.78 ± 0.2 | 2.63 ± 0.29 | –
20 | AMLNLINDNNTRPYILE [YCG1] | 3.22 ± 0.11 | 3.35 ± 0.15 | 3.08 ± 0.11 | 3.23 ± 0.19
21 | VQQQQQQQLRNQIQRQQ [SNF5] | 2.16 ± 0.071 | 2.5 ± 0.12 | 2.07 ± 0.2 | 2.06 ± 0.074
22 | SDAEEEEGEYKNAANTE [ISW2] | 3.06 ± 0.14 | 3.44 ± 0.14 | 3 ± 0.17 | 3.3 ± 0.093
23 | NLYHVTEDGWIYHGNHD [PRE2] | – | 2.97 ± 0.23 | 2.88 ± 0.18 | 3.28 ± 0.22
24 | TEELQTQYATSQKTKTI [SMC2] | 3.5 ± 0.24 | 3.19 ± 0.14 | 3.11 ± 0.23 | 3.18 ± 0.093
25 | SAWIWPMDEETKLYFDV [RPC25] | 2.17 ± 0.075 | 2.4 ± 0.11 | 2.49 ± 0.092 | 2.41 ± 0.15
26 | TTTSNTSGTNIAGTFNV [YOR098C/NUP1] | 3 ± 0.05 | 2.54 ± 0.037 | 2.5 ± 0.051 | 2.24 ± 0.028
27 | FDTVSNKLFTEPIKLEP [YMR129W/POM152] | 2.58 ± 0.046 | 2.7 ± 0.065 | 2.64 ± 0.057 | 2.91 ± 0.036
